This note sets out measurements from patent US20030036091A1.

Experiment [1] has as its target Helicobacter pylori LuxS (Helicobacter pylori). The experiment can be described thus: X-ray crystal structure, homodimer interface.
Experiment [2] deals with Deinococcus radiodurans LuxS (Deinococcus radiodurans). The experiment can be described thus: X-ray crystal structure, C2 form, crystallographic dimer interface.
For experiment [3] the target is unchanged. The experiment in a line: X-ray crystal structure, P21 form, homodimer interface.
The target in experiment [4] is Haemophilus influenzae LuxS (Haemophilus influenzae). The experiment can be described thus: X-ray crystal structure, homodimer interface.

The substance Helicobacter pylori LuxS (enzyme) registered a surface area buried through this interaction in experiment [1] of 4180 Å^2. Consider Deinococcus radiodurans LuxS (enzyme), for which the surface area buried through this interaction was 3200 Å^2 in experiment [2] and 3930 Å^2 in experiment [3]. Take Haemophilus influenzae LuxS (enzyme): the surface area buried through this interaction in experiment [4] was determined as 4160 Å^2.
